Drawing on patent publication US20250084169A1 (published 2025), this text covers Kd and EC50 for two molecules.

Read-outs that look alike come from different tables or passages of the source.

In assay [1] the target is T1, recombinant human Fc gamma RIIIa (CD16a) 158V (human, UniProt P08637 17-208).
The target in a further assay is T2, human CD19 on cells (human, UniProt P15391 20-556).
T2 sequence (looked up): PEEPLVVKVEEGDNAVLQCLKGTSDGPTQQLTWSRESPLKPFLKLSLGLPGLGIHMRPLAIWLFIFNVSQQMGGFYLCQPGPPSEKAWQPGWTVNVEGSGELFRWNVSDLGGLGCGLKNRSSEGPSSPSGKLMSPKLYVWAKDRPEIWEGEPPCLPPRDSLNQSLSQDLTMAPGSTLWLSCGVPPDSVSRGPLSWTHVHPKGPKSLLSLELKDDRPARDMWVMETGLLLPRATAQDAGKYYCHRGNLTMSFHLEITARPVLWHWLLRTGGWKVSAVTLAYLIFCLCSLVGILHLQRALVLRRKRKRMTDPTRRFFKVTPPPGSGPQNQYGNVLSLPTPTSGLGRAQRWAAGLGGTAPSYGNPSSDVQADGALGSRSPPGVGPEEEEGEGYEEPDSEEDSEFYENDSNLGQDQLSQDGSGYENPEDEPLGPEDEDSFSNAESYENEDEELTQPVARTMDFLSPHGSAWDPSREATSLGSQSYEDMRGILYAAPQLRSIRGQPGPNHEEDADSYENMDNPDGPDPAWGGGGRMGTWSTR

The target of assay [2] is T3, cynomolgus monkey CD19 on cells (cynomolgus monkey, UniProt A0A2K5W8L9 20-557).
T3 sequence: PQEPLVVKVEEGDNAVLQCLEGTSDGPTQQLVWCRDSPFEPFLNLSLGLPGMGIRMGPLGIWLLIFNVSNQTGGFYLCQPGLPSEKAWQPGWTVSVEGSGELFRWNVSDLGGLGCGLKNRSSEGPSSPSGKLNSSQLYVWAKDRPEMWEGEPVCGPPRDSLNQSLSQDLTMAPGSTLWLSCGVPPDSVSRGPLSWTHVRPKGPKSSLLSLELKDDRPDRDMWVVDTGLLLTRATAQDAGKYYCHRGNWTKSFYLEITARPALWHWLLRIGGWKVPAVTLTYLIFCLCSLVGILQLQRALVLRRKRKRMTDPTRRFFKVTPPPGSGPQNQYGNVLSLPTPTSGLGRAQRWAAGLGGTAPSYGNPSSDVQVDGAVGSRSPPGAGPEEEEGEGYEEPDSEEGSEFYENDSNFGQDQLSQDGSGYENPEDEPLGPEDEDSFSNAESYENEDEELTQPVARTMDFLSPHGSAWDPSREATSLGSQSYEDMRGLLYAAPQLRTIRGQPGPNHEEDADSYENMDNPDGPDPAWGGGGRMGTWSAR

Assay [3] concerns the target T4, recombinant human Fc gamma RIIIb (CD16b) (human, UniProt O75015 17-200).
In assay [4] the target is T1, recombinant human Fc gamma RIIIa …. The source holds these as a separate data set.
Assay [5] deals with T5, recombinant human Fc gamma RIIIa (CD16a) 158F (human, UniProt P08637 17-208).
T5 sequence (P08637 17-208 limits assumed): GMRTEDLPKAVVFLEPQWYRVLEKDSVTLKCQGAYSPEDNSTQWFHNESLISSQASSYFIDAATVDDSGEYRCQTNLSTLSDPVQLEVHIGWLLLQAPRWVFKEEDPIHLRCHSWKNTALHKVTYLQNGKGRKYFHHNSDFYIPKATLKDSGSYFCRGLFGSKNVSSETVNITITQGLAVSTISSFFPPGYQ
Another assay concerns the target T6, recombinant human CD19 (human, UniProt P15391 20-291).
T6 sequence (looked up): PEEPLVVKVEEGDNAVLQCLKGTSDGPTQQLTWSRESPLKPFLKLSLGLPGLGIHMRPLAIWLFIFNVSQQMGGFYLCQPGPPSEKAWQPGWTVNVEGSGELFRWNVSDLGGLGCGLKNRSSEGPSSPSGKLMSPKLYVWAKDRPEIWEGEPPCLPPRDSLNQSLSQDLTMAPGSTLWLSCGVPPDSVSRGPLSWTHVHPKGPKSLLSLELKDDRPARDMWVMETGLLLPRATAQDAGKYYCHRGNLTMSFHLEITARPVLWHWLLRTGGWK

The target of assay [6] is T7, recombinant cynomolgus monkey CD19 (cynomolgus monkey, UniProt A0A2K5W8L9 20-292).
T7 sequence: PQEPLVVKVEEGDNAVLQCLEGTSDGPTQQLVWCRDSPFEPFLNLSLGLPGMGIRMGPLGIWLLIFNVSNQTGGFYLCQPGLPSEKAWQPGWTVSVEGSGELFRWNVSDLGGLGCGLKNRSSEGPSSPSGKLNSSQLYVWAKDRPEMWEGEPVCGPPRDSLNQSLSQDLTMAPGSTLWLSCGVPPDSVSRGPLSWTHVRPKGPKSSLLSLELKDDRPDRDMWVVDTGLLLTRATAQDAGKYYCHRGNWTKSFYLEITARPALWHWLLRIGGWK

Assay [7] has as its target T4, recombinant human Fc gamma RIIIb (CD16b). The source holds these as a separate data set.
The target of assay [8] is T1, recombinant human Fc gamma RIIIa …. This is another data set of the same source.
Assay [9] concerns the target T8, recombinant human Fc gamma RIIb/c (CD32b/c) (human, UniProt P31994 46-217).
T8 sequence (looked up): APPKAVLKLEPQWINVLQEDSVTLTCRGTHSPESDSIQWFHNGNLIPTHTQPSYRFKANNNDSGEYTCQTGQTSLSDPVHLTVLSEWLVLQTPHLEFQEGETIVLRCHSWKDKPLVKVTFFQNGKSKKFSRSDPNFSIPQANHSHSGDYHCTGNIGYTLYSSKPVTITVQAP

For assay [10], the target named is T9, recombinant human Fc gamma RIIa (CD32a) 131R (human, UniProt P12318 36-218).
T9 sequence (looked up): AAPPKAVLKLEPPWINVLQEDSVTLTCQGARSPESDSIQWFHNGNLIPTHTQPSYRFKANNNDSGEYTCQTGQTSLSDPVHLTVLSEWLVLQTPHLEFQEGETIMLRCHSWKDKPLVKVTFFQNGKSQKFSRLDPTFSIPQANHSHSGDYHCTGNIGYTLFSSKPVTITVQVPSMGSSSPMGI

Assay [11] concerns the target T10, recombinant human Fc gamma RI (CD64) (human, UniProt P12314 16-288).
In assay [12] the target is T5, recombinant human Fc gamma RIIIa …. The source holds these as a separate data set.
The target in assay [13] is T11, recombinant human Fc gamma RIIa (CD32a) 131H (human, UniProt P12318 36-218).
T11 sequence (looked up): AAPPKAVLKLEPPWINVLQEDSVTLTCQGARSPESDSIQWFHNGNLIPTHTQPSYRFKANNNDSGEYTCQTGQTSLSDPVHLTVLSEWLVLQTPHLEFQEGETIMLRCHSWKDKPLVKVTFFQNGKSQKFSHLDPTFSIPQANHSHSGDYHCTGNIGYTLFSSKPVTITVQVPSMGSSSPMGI

Assay [14] deals with T12, cynomolgus monkey Fc gamma receptor CD32a (cynomolgus monkey).
Assay [15] addresses T13, cynomolgus monkey Fc gamma receptor CD32b (cynomolgus monkey).
Assay [16] has as its target T14, cynomolgus monkey Fc gamma receptor CD16 (cynomolgus monkey, UniProt Q8SPW2 17-208).
Assay [17] addresses T12, cynomolgus monkey Fc gamma receptor …. The source holds these as a separate data set.
For assay [18], the target named is T13, cynomolgus monkey Fc gamma receptor …. The source holds these as a separate data set.
Assay [19] concerns the target T14, cynomolgus monkey Fc gamma receptor CD16. This is another data set of the same source.
The target of assay [20] is T8, recombinant human Fc gamma RIIb/c …. The source holds these as a separate data set.
Assay [21] has as its target T9, recombinant human Fc gamma RIIa (CD32a) …. The source holds these as a separate data set.
In assay [22] the target is T10, recombinant human Fc gamma RI (CD64). This is another data set of the same source.

T1 sequence (P08637 17-208 F176V limits assumed): as the sequence (P08637 17-208 limits assumed) above, with F160V counted along it
T4 sequence (O75015 17-200 limits assumed): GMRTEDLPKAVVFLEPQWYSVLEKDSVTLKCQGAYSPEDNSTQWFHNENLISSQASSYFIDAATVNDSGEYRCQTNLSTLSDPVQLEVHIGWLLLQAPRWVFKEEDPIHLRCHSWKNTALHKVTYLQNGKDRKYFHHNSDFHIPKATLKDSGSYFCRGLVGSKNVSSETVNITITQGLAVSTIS
T14 sequence (Q8SPW2 17-208 limits assumed): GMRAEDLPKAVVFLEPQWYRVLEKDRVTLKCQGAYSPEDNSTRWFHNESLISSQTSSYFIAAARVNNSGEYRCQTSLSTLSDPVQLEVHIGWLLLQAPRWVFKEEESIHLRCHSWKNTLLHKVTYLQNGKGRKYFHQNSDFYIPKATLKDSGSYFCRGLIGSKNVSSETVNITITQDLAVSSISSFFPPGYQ
T10 sequence (P12314 16-288 limits assumed): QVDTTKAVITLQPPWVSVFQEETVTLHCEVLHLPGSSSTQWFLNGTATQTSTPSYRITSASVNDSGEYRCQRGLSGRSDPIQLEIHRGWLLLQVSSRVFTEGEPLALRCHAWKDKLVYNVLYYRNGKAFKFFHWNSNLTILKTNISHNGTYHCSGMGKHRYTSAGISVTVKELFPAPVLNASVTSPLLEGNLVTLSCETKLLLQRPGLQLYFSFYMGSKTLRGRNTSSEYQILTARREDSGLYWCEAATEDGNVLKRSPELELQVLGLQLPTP

B1: B19c66 (antibody, human IgG1, kappa)
light: not shown
heavy: not shown
chain: CPPCPAPELLGGPSVFLFPPKPKDTLMISRTPEVTCVVVDVSHEDPEVKFNWYVDGVEVHNAKTKPREEQYNSTYRVVSVLTVLHQDWLNGKEYKCKVSNKALPAPIEKTISKAKGQPREPQVYVYPPSRDELTKNQVSLTCLVKGFYPSDIAVEWESNGQPENNYKTTPPVLDSDGSFALVSKLTVDKSRWQQGNVFSCSVMHEALHNHYTQKSLSLSPGK
Regarding B1, the Kd (as a rule, the constant that tells how readily two partners part at equilibrium) in [1] turned out to be 234 nM; with CD19 (target of Table 9), 21.8 nM.

B2: Tafasitamab-cxix (research grade biosimilar) (antibody, human IgG1, kappa)
heavy: EVQLVESGGGLVKPGGSLKLSCAASGYTFTSYVMHWVRQAPGKGLEWIGYINPYNDGTKYNEKFQGRVTISSDKSISTAYMELSSLRSEDTAMYYCARGTYYYGTRVFDYWGQGTLVTVSSASTKGPSVFPLAPSSKSTSGGTAALGCLVKDYFPEPVTVSWNSGALTSGVHTFPAVLQSSGLYSLSSVVTVPSSSLGTQTYICNVNHKPSNTKVDKKVEPKSCDKTHTCPPCPAPELLGGPDVFLFPPKPKDTLMISRTPEVTCVVVDVSHEDPEVQFNWYVDGVEVHNAKTKPREEQFNSTFRVVSVLTVVHQDWLNGKEYKCKVSNKALPAPEEKTISKTKGQPREPQVYTLPPSREEMTKNQVSLTCLVKGFYPSDIAVEWESNGQPENNYKTTPPMLDSDGSFFLYSKLTVDKSRWQQGNVFSCSVMHEALHNHYTQKSLSLSPG
light: DIVMTQSPATLSLSPGERATLSCRSSKSLQNVNGNTYLYWFQQKPGQSPQLLIYRMSNLNSGVPDRFSGSGSGTEFTLTISSLEPEDFAVYYCMQHLEYPITFGAGTKLEIKRTVAAPSVFIFPPSDEQLKSGTASVVCLLNNFYPREAKVQWKVDNALQSGNSQESVTEQDSKDSTYSLSSTLTLSKADYEKHKVYACEVTHQGLSSPVTKSFNRGEC
On to B2, for which the EC50 (usually the midpoint of the concentration-response curve) with human CD19 on cells was 1 nM; in assay [2] it was 57 nM. Besides, the Kd in assay [3] was 62.1 nM; in assay [4] it was 4.19 nM; in assay [5], 15.3 nM; with recombinant human CD19, 1.4 nM; in assay [6] it was 1800 nM; in assay [7] it was 176 nM. Besides, the Kd in assay [8] came out at 88.9 nM; in assay [9] it was 234 nM; in assay [10], 203 nM; in assay [11], 5.6 nM; in assay [12], 121 nM; in assay [13] it was 231 nM. Also, the Kd in [14] came to 76.2 nM; in assay [15], 53 nM; in assay [16], 1.34 nM; in assay [17], 181 nM; in [18], 152 nM; in assay [19] it was 49.5 nM. Further, the Kd in assay [20] was 99.4 nM; in [21], 39.1 nM; in assay [22], < 0.02 nM.
